{"source": "patent US20040086945A1", "about": "“Hairless protein-interacting partner complexes and methods thereto” (The Procter & Gamble Company, priority 2002, published 2004)", "molecules": {"B1": {"name": "Human metallothionein from cadmium-treated cells: human HRt interacting partner, GenBank V00594, SEQ ID NO:3/4 (protein, listed as Homo sapiens)", "chain": "VPANPRATCPDSSRLFSSPWIPTAPAPPVTPAPAPAPANAKSANAPPARKAAAPAALWAVPSVPRAASAKGRRTSAAAAPDAGTAPLPDVKNATSTNLDFLCTTLTVTVCYIPFSMK"}, "B2": {"name": "Human cDNA FLJ20109 fis clone COL05067: human HRt interacting partner, GenBank BC009472, SEQ ID NO:72/73 (protein, listed as Homo sapiens)", "chain": "VASPPVPCSAAFRSLHISVARDLKMRLHLLLLLALCGAGTTAAELSYSLRGNWSICNGNGSLELPGAVPGCVHSALFQ"}, "B3": {"name": "Human splicing factor (CC1.4): human HRt interacting partner, GenBank L10911, SEQ ID NO:59/60 (protein, listed as Homo sapiens)", "chain": "EFAAASTTAPVIIFVSKMFAVDAKALPQNKPRPLTQEEIAQRRERARQRHAEKLAAAQGQAPLEPTQDGSAIETCPKGEEPRGDEQQVESMTPKPVLQEENNQESFIAFARVFSGVARRGKKIFVLGPKYSPLEFLRRVPLGFSAPPDGLPQVPHMAYCALENLYLLMGRELEYLEEVPPGNVLGIGGLQDFVLKSATLCSLPSCPPFIPLNFEATPIVRVAVEPKHPSEMPQLVKG"}, "B4": {"name": "Human neuronal membrane glycoprotein M6b1: human HRt interacting partner, GenBank AF016004, SEQ ID NO:56 (protein, UniProt Q13491 1-265, looked up)", "Neuronal membrane …": "MKPAMETAAEENTEQSQERKGCFECCIKCLGGVPYASLVATILCFSGVALFCGCGHVALAGTVAILEQHFSTNASDHALLSEVIQLMQYVIYGIASFFFLYGIILLAEGFYTTSAVKELHGEFKTTACGRCISGMFVFLTYVLGVAWLGVFGFSAVPVFMFYNIWSTCEVIKSPQTNGTTGVEQICVDIRQYGIIPWNAFPGKICGSALENICNTNEFYMSYHLFIVACAGAGATVIALLIYMMATTYNYAVLKFKSREDCCTKF"}, "B5": {"name": "Human PACE4 (SPC4): human HRt interacting partner, GenBank AB001899, SEQ ID NO:69 (protein, UniProt P29122 150-969, looked up)", "Proprotein convertase …": "QVRSDPQALYFNDPIWSNMWYLHCGDKNSRCRSEMNVQAAWKRGYTGKNVVVTILDDGIERNHPDLAPNYDSYASYDVNGNDYDPSPRYDASNENKHGTRCAGEVAASANNSYCIVGIAYNAKIGGIRMLDGDVTDVVEAKSLGIRPNYIDIYSASWGPDDDGKTVDGPGRLAKQAFEYGIKKGRQGLGSIFVWASGNGGREGDYCSCDGYTNSIYTISVSSATENGYKPWYLEECASTLATTYSSGAFYERKIVTTDLRQRCTDGHTGTSVSAPMVAGIIALALEANSQLTWRDVQHLLVKTSRPAHLKASDWKVNGAGHKVSHFYGFGLVDAEALVVEAKKWTAVPSQHMCVAASDKRPRSIPLVQVLRTTALTSACAEHSDQRVVYLEHVVVRTSISHPRRGDLQIYLVSPSGTKSQLLAKRLLDLSNEGFTNWEFMTVHCWGEKAEGQWTLEIQDLPSQVRNPEKQGKLKEWSLILYGTAEHPYHTFSAHQSRSRMLELSAPELEPPKAALSPSQVEVPEDEEDYTAQSTPGSANILQTSVCHPECGDKGCDGPNADQCLNCVHFSLGSVKTSRKCVSVCPLGYFGDTAARRCRRCHKGCETCSSRAATQCLSCRRGFYHHQEMNTCVTLCPAGFYADESQKNCLKCHPSCKKCVDEPEKCTVCKEGFSLARGSCIPDCEPGTYFDSELIRCGECHHTCGTCVGPGREECIHCAKNFHFHDWKCVPACGEGFYPEEMPGLPHKVCRRCDENCLSCAGSSRNCSRCKTGFTQLGTSCITNHTCSNADETFCEMVKSNRLCERKLFIQFCCRTCLLAG"}, "B6": {"name": "Human MDC15: human HRt interacting partner, GenBank U46005, SEQ ID NO:77 (protein, listed as Homo sapiens)", "chain": "LGLQWHADGRLTKKLNGLADLEACIKTLHGQGFSQPSLTTLTAFSVEGCLQEHCVILIQSW"}, "B7": {"name": "Human […]-mannosidase: human HRt interacting partner, GenBank U60337, SEQ ID NO:80/81 (protein, UniProt O00462 18-879, looked up)", "Beta-mannosidase": "AAELSYSLRGNWSICNGNGSLELPGAVPGCVHSALFQQGLIQDSYYRFNDLNYRWVSLDNWTYSKEFKIPFEISKWQKVNLILEGVDTVSKILFNEVTIGETDNMFNRYSFDITNVVRDVNSIELRFQSAVLYAAQQSKAHTRYQVPPDCPPLVQKGECHVNFVRKEQCSFSWDWGPSFPTQGIWKDVRIEAYNICHLNYFTFSPIYDKSAQEWNLEIESTFDVVSSKPVGGQVIVAIPKLQTQQTYSIELQPGKRIVELFVNISKNITVETWWPHGHGNQTGYNMTVLFELDGGLNIEKSAKVYFRTVELIEEPIKGSPGLSFYFKINGFPIFLKGSNWIPADSFQDRVTSELLRLLLQSVVDANMNTLRVWGGGIYEQDEFYELCDELGIMVWQDFMFACALYPTDQGFLDSVTAEVAYQIKRLKSHPSIIIWSGNNENEEALMMNWYHISFTDRPIYIKDYVTLYVKNIRELVLAGDKSRPFITSSPTNGAETVAEAWVSQNPNSNYFGDVHFYDYISDCWNWKVFPKARFASEYGYQSWPSFSTLEKVSSTEDWSFNSKFSLHRQHHEGGNKQMLYQAGLHFKLPQSTDPLRTFKDTIYLTQVMQAQCVKTETEFYRRSRSEIVDQQGHTMGALYWQLNDIWQAPSWASLEYGGKWKMLHYFAQNFFAPLLPVGFENENTFYIYGVSDLHSDYSMTLSVRVHTWSSLEPVCSRVTERFVMKGGEAVCLYEEPVSELLRRCGNCTRESCVVSFYLSADHELLSPTNYHFLSSPKEAVGLCKAQITAIISQQGDIFVFDLETSAVAPFVWLDVGSIPGRFSDNGFLMTEKTRTILFYPWEPTSKNELEQSFHVTSLTDIY"}}}
{"target": "T1, mouse HRt (hairless protein aa 490-1182) (Mus musculus, UniProt Q61645)", "T1 construct": "HR cDNA corresponding to the C-terminal half of HR protein (aa residues 490 to 1182, hereinafter HRt); expressed in transfected cells; host or cells: Saccharomyces cerevisiae PJ69-2A transformed with BD-HRt plasmid, mated with Y187 carrying the human brain cDNA library in pACT2", "T1 sequence (Q61645 490-1182)": "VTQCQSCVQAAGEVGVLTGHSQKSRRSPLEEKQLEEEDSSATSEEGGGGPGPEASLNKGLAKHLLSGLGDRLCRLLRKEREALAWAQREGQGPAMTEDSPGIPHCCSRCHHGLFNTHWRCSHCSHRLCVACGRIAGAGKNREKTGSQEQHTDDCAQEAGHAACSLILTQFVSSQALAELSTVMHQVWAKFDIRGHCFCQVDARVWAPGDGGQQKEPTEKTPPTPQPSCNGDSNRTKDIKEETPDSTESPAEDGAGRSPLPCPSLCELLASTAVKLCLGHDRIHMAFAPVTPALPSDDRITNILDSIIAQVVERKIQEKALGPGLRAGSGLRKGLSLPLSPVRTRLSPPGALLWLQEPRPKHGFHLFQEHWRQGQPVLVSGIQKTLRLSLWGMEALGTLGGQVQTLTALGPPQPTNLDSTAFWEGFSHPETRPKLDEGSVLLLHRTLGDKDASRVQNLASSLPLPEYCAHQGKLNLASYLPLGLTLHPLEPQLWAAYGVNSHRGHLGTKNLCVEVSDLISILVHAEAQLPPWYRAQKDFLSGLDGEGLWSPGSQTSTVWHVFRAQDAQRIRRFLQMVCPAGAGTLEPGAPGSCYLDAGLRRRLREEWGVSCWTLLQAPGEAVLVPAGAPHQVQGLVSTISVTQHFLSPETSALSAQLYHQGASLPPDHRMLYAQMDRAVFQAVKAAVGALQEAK", "experiment": "Yeast two-hybrid screen of BD-HRt against human brain cDNA library in AD vector, lacZ coloration on QDO-Xgal plates", "format": "cell-based", "details": "BD-HRt(mouse) x human brain cDNA library in AD-vector", "from_the_text": "The present example provides for Hairless Protein (HR) interacting partners (HR-IP) using the yeast two-hybrid technology. […] Yeast cells expressing BD-HRt are mated with yeast cells pretransformed with human brain cDNA library in the activation domain (AD) vector.\nCloning of HRt into GAL4 binding domain (BD) yeast two-hybrid (Y2H) vector: The HRt insert from pET32a-HRt is excised as an Eco RI-Xho I fragment (there is a unique Xho I site just adjacent to HRt insert) and inserted at the Eco RI-Sal I sites of Y2H-BD vector pGBKT7 (Catalog No. K1612-B; a component of Matchmaker two-hybrid System 3 (Catalog No. K1612-1) BD Biosciences Clontech, Palo Alto, Calif.) to obtain pGBKT7-HRt in which HRt is fused in-frame to GAL 4 DNA BD (this plasmid is also designated BD-HRt).\nPretransformed human brain […] cDNA Library Screen for HRt interaction partners: Pretransformed human brain […] high-complexity GAL4 cDNA library that has already been amplified and introduced into yeast strain Y187 (MATα) is used to screen for HRt interacting proteins. […] The library host strain Y187 provides a third reporter gene (lacZ) for optional quantification of signal strength. The protocol as described in Clontech user manual (PT3183-1) is used. Briefly, the library is mixed with PJ69-2A strain that has been transformed with the BD-HRt plasmid in YPD medium containing adenine hemisulfate (0.004%) and kanamycin (0.005%) and incubated for 20-24 h at 30° C. The next day, the mating mixture is plated on Leu, Trp, His TDO that selects for two-hybrid interactions, and then the positive clones are screened for growth on Leu, Trp, His, Ade QDO, which is a more stringent condition for interaction. Colonies that grew well on QDO are also screened for lacZ expression by streaking on QDO-Xgal plates. Based on a visual assessment of colonies for the intensity of blue color, the clones are classified into high (H), medium (M), low (L) or very low (VL) categories.\nThe positive clones are expected to contain an AD-IP (interacting partner) that interacts with BD-HRt. To characterize IP, the sequence of IP is determined and matched to the human genome database. For this purpose, total DNA is isolated from the positive clones and PCR amplified with […] AD LD (long distance)-insert screening amplimers (Catalog No.9103-1; BD Biosciences Clontech, PaloAlto, Calif.). Reaction is conducted in 50 μl volume for 35 cycles using the conditions recommended with the Advantage2 PCR kit (Catalog No. K1910-1; BD Biosciences Clontech, PaloAlto, Calif.)."}
{"molecule": "B1", "XGAL (rate and intensity of coloration of colonies on Xgal)": "H (H = Intense blue within 2-3 days)"}
{"molecule": "B2", "XGAL (rate and intensity of coloration of colonies on Xgal)": "L (L = Low blue in 5-7 days)"}
{"molecule": "B3", "XGAL (rate and intensity of coloration of colonies on Xgal)": "L/VL"}
{"molecule": "B4", "XGAL (rate and intensity of coloration of colonies on Xgal)": "L (L = Low blue in 5-7 days)"}
{"molecule": "B5", "XGAL (rate and intensity of coloration of colonies on Xgal)": "L (L = Low blue in 5-7 days)"}
{"molecule": "B6", "XGAL (rate and intensity of coloration of colonies on Xgal)": "L (L = Low blue in 5-7 days)"}
{"molecule": "B7", "XGAL (rate and intensity of coloration of colonies on Xgal)": "L (L = Low blue in 5-7 days)"}
{"tested_on": "Male C3H mice", "experiment": "Animal model for hair growth stimulation (HGS) activity", "format": "in vivo", "details": "applied daily for 17 days to shaved, Nair-treated back; day 17 compared to control treatment", "experimental": "Male C3H mice (˜42-48 days old and weighing ˜24 g) purchased from Harlan are acclimatized for 2 days and ˜2 cm^2 area on their back is shaved closely with an electric hair trimmer. To the shaved area, ˜300 μl of Nair lotion (NEW! Quick'n Easy 4 Minute Formula) is thinly smeared with a gloved fingertip for ˜30 sec. The area is wiped with Kimwipes for ˜15 sec and immediately washed under a gentle stream of lukewarm water for ˜50 sec and patted dry with Kimwipes. Test materials are applied (5 animals/test material) daily for 17 days. The shaved area is visually observed every day for anagen conversion and hair growth. Animal backs are photographed on day 8 and 17. In this model Triiodo thyronine (T3) has clear HGS activity (100% HGS activity), as evidenced by early onset of pigmentation and clear increase in hair length at day 17 compared to control treatment (60% ethanol, 20% propylene glycol and 20% Transcutol).", "units": {"HGS activity": "%"}}
{"molecule": "N[C@@H](Cc1cc(I)c(Oc2ccc(O)c(I)c2)c(I)c1)C(=O)O", "note": "[Triiodo thyronine]", "HGS activity": 100}
